Biological target: 2526 IgG3
Assay: ELISA
Conditions: read off a plot

| Substance | response (parent: est. 4.0) | response |
| --- | --- | --- |
| H1 NC99 trimer, wild type HA (Fig 5A) (from UniProt Q6WG00) N23T | 2.8 Abs (450nm) |  |
| WT-NTD N61A |  | 2.7 Abs (450nm) |
| WT-NTD N149A |  | 1 Abs (450nm) |
| WT-NTD N165A |  | 2.7 Abs (450nm) |
| WT-NTD N234A |  | 1.7 Abs (450nm) |

Source: PMC11410209
